# From patent US20250388669A1 (published 2025)
# T1: B7H3 (human, UniProt Q5ZPR3 29-466, limits assumed)
# T1 sequence (looked up): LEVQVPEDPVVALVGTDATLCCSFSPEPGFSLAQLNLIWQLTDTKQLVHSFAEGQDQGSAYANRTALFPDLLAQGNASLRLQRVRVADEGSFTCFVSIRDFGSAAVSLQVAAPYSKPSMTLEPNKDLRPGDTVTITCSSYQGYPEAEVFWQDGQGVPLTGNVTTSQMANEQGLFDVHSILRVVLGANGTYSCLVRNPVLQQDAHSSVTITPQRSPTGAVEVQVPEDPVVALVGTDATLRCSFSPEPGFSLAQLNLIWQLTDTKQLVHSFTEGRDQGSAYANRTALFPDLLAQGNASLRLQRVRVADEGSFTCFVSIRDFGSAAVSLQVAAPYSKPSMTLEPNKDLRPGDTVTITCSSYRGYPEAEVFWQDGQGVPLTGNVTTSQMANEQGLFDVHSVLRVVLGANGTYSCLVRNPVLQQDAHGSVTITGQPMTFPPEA
# Target: T1, B7H3
# Test: ELISA or FCM (Example 2)
row,Binder,binding result
1,"Ly2368 (other, Tri-specific antibody: B7H3 Fabs, central CD3 Fv, terminal CD137 Fv; It has no flexible linker) chain 1: QVQLVQSGAEVKKPGASVKVSCKASGYTFTSYVMHWVRQKPGQGLEWIGYINPYNEGTESTDKFKGRATMTSDKSTSTVYMELSSLRSEDTAVYYCASIYYGYEGTYFGVWGQGTLVTVSSASTKGPSVFPLAPSSKSTSGGTAALGCLVKDYFPEPVTVSWNSGALTSGVHTFPAVLQSSGLYSLSSVVTVPSSSLGTQTYICNVNHKPSNTKVDKKVEPKSCEVQLVESGGGLVQPGGSLRLSCAASGFTFSTYAMNWVRQAPGKGLEWVGRIRSKYNNYATYYADSVKGRFTISRDDSKNSLYLQMNSLKTEDTAVYYCVRHGNFGNSYVSWFAYWGQGTLVTVSSGGGGSDKTHTCPPCPAPEAAGPSVFLFPPKPKDTLMISRTPEVTCVVVDVSHEDPEVKFNWYVDGVEVHNAKTKPREEQYNSTYRVVSVLTVLHQDWLNGKEYKCKVSNKALPAPIEKTISKAKGQPREPQVYTLPPSREEMTKNQVSLWCLVKGFYPSDIAVEWESNGQPENNYKTTPPVLDSDGSFFLYSKLTVDKSRWQQGNVFSCSVMHEALHNHYTQKSLSLSPGGGGGSGGGGSGGGGSGGGGSQVQLVQSGAEVKKPGASVKVSCKASGYTFAGFEMHWVRQAPGQGLEWMGAIDPKTGGTDYNQKFKDRVTMTRDTSISTAYMELSRLRSDDTAVYYCARDLGYFDVWGQGTLVTVSS chain 2: QVQLVQSGAEVKKPGASVKVSCKASGYTFTSYVMHWVRQKPGQGLEWIGYINPYNEGTESTDKFKGRATMTSDKSTSTVYMELSSLRSEDTAVYYCASIYYGYEGTYFGVWGQGTLVTVSSASTKGPSVFPLAPSSKSTSGGTAALGCLVKDYFPEPVTVSWNSGALTSGVHTFPAVLQSSGLYSLSSVVTVPSSSLGTQTYICNVNHKPSNTKVDKKVEPKSCQAVVTQEPSLTVSPGGTVTLTCRSSTGAVTTSNYANWVQQKPGQAPRGLIGGTNKRAPWTPARFSGSLLGGKAALTITGAQAEDEADYYCALWYSNLWVFGGGTKLTVLGGGGSDKTHTCPPCPAPEAAGPSVFLFPPKPKDTLMISRTPEVTCVVVDVSHEDPEVKFNWYVDGVEVHNAKTKPREEQYNSTYRVVSVLTVLHQDWLNGKEYKCKVSNKALPAPIEKTISKAKGQPREPQVYTLPPSREEMTKNQVSLSCAVKGFYPSDIAVEWESNGQPENNYKTTPPVLDSDGSFFLVSKLTVDKSRWQQGNVFSCSVMHEALHNRFTQKSLSLSPGGGGGSGGGGSGGGGSGGGGSDIQMTQSPSSLSASVGDRVTITCRASQDIRSNLNWYQQKPGGAVKLLIYYTSRLHSGVPSRFSGSGSGTDYTLTISSLQPEDFATYFCQQSEKLPRTFGGGTKVEIR light: EIVLTQSPATLSLSPGERATLSCRASSSVSYMHWYQQKPGQAPRPWIYATSNLASGIPARFSGSRSGTDYTLTISSLEPEDFAVYYCQQWSSNTLTFGGGTKVEIKRTVAAPSVFIFPPSDEQLKSGTASVVCLLNNFYPREAKVQWKVDNALQSGNSQESVTEQDSKDSTYSLSSTLTLSKADYEKHKVYACEVTHQGLSSPVTKSFNRGEC",binds
2,"Ly2384 (other, Tri-specific antibody: B7H3 Fabs, central CD3 Fv, terminal CD137 Fv; Flexible linker is G3S) chain 1: QVQLVQSGAEVKKPGASVKVSCKASGYTFTSYVMHWVRQKPGQGLEWIGYINPYNEGTESTDKFKGRATMTSDKSTSTVYMELSSLRSEDTAVYYCASIYYGYEGTYFGVWGQGTLVTVSSASTKGPSVFPLAPSSKSTSGGTAALGCLVKDYFPEPVTVSWNSGALTSGVHTFPAVLQSSGLYSLSSVVTVPSSSLGTQTYICNVNHKPSNTKVDKKVEPKSCGGGSEVQLVESGGGLVQPGGSLRLSCAASGFTFSTYAMNWVRQAPGKGLEWVGRIRSKYNNYATYYADSVKGRFTISRDDSKNSLYLQMNSLKTEDTAVYYCVRHGNFGNSYVSWFAYWGQGTLVTVSSGGGGSDKTHTCPPCPAPEAAGPSVFLFPPKPKDTLMISRTPEVTCVVVDVSHEDPEVKFNWYVDGVEVHNAKTKPREEQYNSTYRVVSVLTVLHQDWLNGKEYKCKVSNKALPAPIEKTISKAKGQPREPQVYTLPPSREEMTKNQVSLWCLVKGFYPSDIAVEWESNGQPENNYKTTPPVLDSDGSFFLYSKLTVDKSRWQQGNVFSCSVMHEALHNHYTQKSLSLSPGGGGGSGGGGSGGGGSGGGGSQVQLVQSGAEVKKPGASVKVSCKASGYTFAGFEMHWVRQAPGQGLEWMGAIDPKTGGTDYNQKFKDRVTMTRDTSISTAYMELSRLRSDDTAVYYCARDLGYFDVWGQGTLVTVSS chain 2: QVQLVQSGAEVKKPGASVKVSCKASGYTFTSYVMHWVRQKPGQGLEWIGYINPYNEGTESTDKFKGRATMTSDKSTSTVYMELSSLRSEDTAVYYCASIYYGYEGTYFGVWGQGTLVTVSSASTKGPSVFPLAPSSKSTSGGTAALGCLVKDYFPEPVTVSWNSGALTSGVHTFPAVLQSSGLYSLSSVVTVPSSSLGTQTYICNVNHKPSNTKVDKKVEPKSCGGGSQAVVTQEPSLTVSPGGTVTLTCRSSTGAVTTSNYANWVQQKPGQAPRGLIGGTNKRAPWTPARFSGSLLGGKAALTITGAQAEDEADYYCALWYSNLWVFGGGTKLTVLGGGGSDKTHTCPPCPAPEAAGPSVFLFPPKPKDTLMISRTPEVTCVVVDVSHEDPEVKFNWYVDGVEVHNAKTKPREEQYNSTYRVVSVLTVLHQDWLNGKEYKCKVSNKALPAPIEKTISKAKGQPREPQVYTLPPSREEMTKNQVSLSCAVKGFYPSDIAVEWESNGQPENNYKTTPPVLDSDGSFFLVSKLTVDKSRWQQGNVFSCSVMHEALHNRFTQKSLSLSPGGGGGSGGGGSGGGGSGGGGSDIQMTQSPSSLSASVGDRVTITCRASQDIRSNLNWYQQKPGGAVKLLIYYTSRLHSGVPSRFSGSGSGTDYTLTISSLQPEDFATYFCQQSEKLPRTFGGGTKVEIR light: EIVLTQSPATLSLSPGERATLSCRASSSVSYMHWYQQKPGQAPRPWIYATSNLASGIPARFSGSRSGTDYTLTISSLEPEDFAVYYCQQWSSNTLTFGGGTKVEIKRTVAAPSVFIFPPSDEQLKSGTASVVCLLNNFYPREAKVQWKVDNALQSGNSQESVTEQDSKDSTYSLSSTLTLSKADYEKHKVYACEVTHQGLSSPVTKSFNRGEC",binds
3,"Ly2385 (other, Tri-specific antibody: B7H3 Fabs, central CD3 Fv, terminal CD137 Fv; Flexible linker is G2S) chain 1: QVQLVQSGAEVKKPGASVKVSCKASGYTFTSYVMHWVRQKPGQGLEWIGYINPYNEGTESTDKFKGRATMTSDKSTSTVYMELSSLRSEDTAVYYCASIYYGYEGTYFGVWGQGTLVTVSSASTKGPSVFPLAPSSKSTSGGTAALGCLVKDYFPEPVTVSWNSGALTSGVHTFPAVLQSSGLYSLSSVVTVPSSSLGTQTYICNVNHKPSNTKVDKKVEPKSCGGSEVQLVESGGGLVQPGGSLRLSCAASGFTFSTYAMNWVRQAPGKGLEWVGRIRSKYNNYATYYADSVKGRFTISRDDSKNSLYLQMNSLKTEDTAVYYCVRHGNFGNSYVSWFAYWGQGTLVTVSSGGGGSDKTHTCPPCPAPEAAGPSVFLFPPKPKDTLMISRTPEVTCVVVDVSHEDPEVKFNWYVDGVEVHNAKTKPREEQYNSTYRVVSVLTVLHQDWLNGKEYKCKVSNKALPAPIEKTISKAKGQPREPQVYTLPPSREEMTKNQVSLWCLVKGFYPSDIAVEWESNGQPENNYKTTPPVLDSDGSFFLYSKLTVDKSRWQQGNVFSCSVMHEALHNHYTQKSLSLSPGGGGGSGGGGSGGGGSGGGGSQVQLVQSGAEVKKPGASVKVSCKASGYTFAGFEMHWVRQAPGQGLEWMGAIDPKTGGTDYNQKFKDRVTMTRDTSISTAYMELSRLRSDDTAVYYCARDLGYFDVWGQGTLVTVSS chain 2: QVQLVQSGAEVKKPGASVKVSCKASGYTFTSYVMHWVRQKPGQGLEWIGYINPYNEGTESTDKFKGRATMTSDKSTSTVYMELSSLRSEDTAVYYCASIYYGYEGTYFGVWGQGTLVTVSSASTKGPSVFPLAPSSKSTSGGTAALGCLVKDYFPEPVTVSWNSGALTSGVHTFPAVLQSSGLYSLSSVVTVPSSSLGTQTYICNVNHKPSNTKVDKKVEPKSCGGSQAVVTQEPSLTVSPGGTVTLTCRSSTGAVTTSNYANWVQQKPGQAPRGLIGGTNKRAPWTPARFSGSLLGGKAALTITGAQAEDEADYYCALWYSNLWVFGGGTKLTVLGGGGSDKTHTCPPCPAPEAAGPSVFLFPPKPKDTLMISRTPEVTCVVVDVSHEDPEVKFNWYVDGVEVHNAKTKPREEQYNSTYRVVSVLTVLHQDWLNGKEYKCKVSNKALPAPIEKTISKAKGQPREPQVYTLPPSREEMTKNQVSLSCAVKGFYPSDIAVEWESNGQPENNYKTTPPVLDSDGSFFLVSKLTVDKSRWQQGNVFSCSVMHEALHNRFTQKSLSLSPGGGGGSGGGGSGGGGSGGGGSDIQMTQSPSSLSASVGDRVTITCRASQDIRSNLNWYQQKPGGAVKLLIYYTSRLHSGVPSRFSGSGSGTDYTLTISSLQPEDFATYFCQQSEKLPRTFGGGTKVEIR light: EIVLTQSPATLSLSPGERATLSCRASSSVSYMHWYQQKPGQAPRPWIYATSNLASGIPARFSGSRSGTDYTLTISSLEPEDFAVYYCQQWSSNTLTFGGGTKVEIKRTVAAPSVFIFPPSDEQLKSGTASVVCLLNNFYPREAKVQWKVDNALQSGNSQESVTEQDSKDSTYSLSSTLTLSKADYEKHKVYACEVTHQGLSSPVTKSFNRGEC",binds
